Results taken from PMC13397619.

B1: NLV2 TCR alpha chain (CDR3α only) (parent)
chain: AGPMKTSYDKVI
partner: NLVGMVATV

Variants of: B1
Experiment: T-Switch: Jurkat TCRβ−/− cells expressing a CDR3 saturation-mutagenesis library, stained with two peptide-HLA-A*02:01 tetramers (original and novel peptide) plus anti-CD3, FACS-sorted into four gates, gDNA sequenced
Settings: with HLA-A*02:01 with peptide … (NLV 2-2, the original bait), tetramers 1 µg/mL, 30 min on ice, DP and SW gates expanded about 10 days between rounds ('two to three rounds of selection' in the Methods), gate SP: higher = more of the variant in the gate that binds the original peptide and not the novel one = retained original binding. Fold enrichment of the CDR3 variant in one FACS gate of a two-tetra, unresolved parent, parent is a CDR3 fragment, scale: fold enrichment, numbering: sequential-on-construct, sequence …

Row | Variant | enrichment
1 | […] (CDR3 as printed); Y8G derived by comparing it with the table's wild-type CDR3 AGPMKTSYDKVI | 0
2 | […] (CDR3 as printed); K10H derived by comparing it with the table's wild-type CDR3 AGPMKTSYDKVI | 0.422
3 | […] (CDR3 as printed); S7F derived by comparing it with the table's wild-type CDR3 AGPMKTSYDKVI | 0
4 | […] (CDR3 as printed); T6A derived by comparing it with the table's wild-type CDR3 AGPMKTSYDKVI | 0
5 | […] (CDR3 as printed); K5L derived by comparing it with the table's wild-type CDR3 AGPMKTSYDKVI | 0
6 | […] (CDR3 as printed); Y8N derived by comparing it with the table's wild-type CDR3 AGPMKTSYDKVI | 0
7 | […] (CDR3 as printed); G2L derived by comparing it with the table's wild-type CDR3 AGPMKTSYDKVI | 0
8 | […] (CDR3 as printed); S7R derived by comparing it with the table's wild-type CDR3 AGPMKTSYDKVI | 0
9 | […] (CDR3 as printed); I12P derived by comparing it with the table's wild-type CDR3 AGPMKTSYDKVI | 0
10 | […] (CDR3 as printed); D9N derived by comparing it with the table's wild-type CDR3 AGPMKTSYDKVI | 0
11 | […] (CDR3 as printed); Y8V derived by comparing it with the table's wild-type CDR3 AGPMKTSYDKVI | 0
12 | […] (CDR3 as printed); I12H derived by comparing it with the table's wild-type CDR3 AGPMKTSYDKVI | 0
13 | […] (CDR3 as printed); A1D derived by comparing it with the table's wild-type CDR3 AGPMKTSYDKVI | 0
14 | […] (CDR3 as printed); S7N derived by comparing it with the table's wild-type CDR3 AGPMKTSYDKVI | 0
15 | […] (CDR3 as printed); M4K derived by comparing it with the table's wild-type CDR3 AGPMKTSYDKVI | 0.788
16 | […] (CDR3 as printed); Y8S derived by comparing it with the table's wild-type CDR3 AGPMKTSYDKVI | 0
17 | […] (CDR3 as printed); K10S derived by comparing it with the table's wild-type CDR3 AGPMKTSYDKVI | 0
18 | […] (CDR3 as printed); P3S derived by comparing it with the table's wild-type CDR3 AGPMKTSYDKVI | 0
19 | […] (CDR3 as printed); M4T derived by comparing it with the table's wild-type CDR3 AGPMKTSYDKVI | 12.4
20 | […] (CDR3 as printed); Y8F derived by comparing it with the table's wild-type CDR3 AGPMKTSYDKVI | 0
21 | […] (CDR3 as printed); T6H derived by comparing it with the table's wild-type CDR3 AGPMKTSYDKVI | 0

Row | Variant | enrichment
22 | […] (CDR3 as printed); D9G derived by comparing it with the table's wild-type CDR3 AGPMKTSYDKVI | 0
23 | […] (CDR3 as printed); A1L derived by comparing it with the table's wild-type CDR3 AGPMKTSYDKVI | 0
24 | […] (CDR3 as printed); I12D derived by comparing it with the table's wild-type CDR3 AGPMKTSYDKVI | 0
25 | […] (CDR3 as printed); A1C derived by comparing it with the table's wild-type CDR3 AGPMKTSYDKVI | 0.571
26 | […] (CDR3 as printed); Y8P derived by comparing it with the table's wild-type CDR3 AGPMKTSYDKVI | 0
27 | […] (CDR3 as printed); Y8W derived by comparing it with the table's wild-type CDR3 AGPMKTSYDKVI | 0
28 | […] (CDR3 as printed); T6D derived by comparing it with the table's wild-type CDR3 AGPMKTSYDKVI | 0
29 | […] (CDR3 as printed); M4R derived by comparing it with the table's wild-type CDR3 AGPMKTSYDKVI | 0
30 | […] (CDR3 as printed); A1P derived by comparing it with the table's wild-type CDR3 AGPMKTSYDKVI | 2.46
31 | […] (CDR3 as printed); P3Q derived by comparing it with the table's wild-type CDR3 AGPMKTSYDKVI | 0
32 | […] (CDR3 as printed); K10W derived by comparing it with the table's wild-type CDR3 AGPMKTSYDKVI | 0
33 | […] (CDR3 as printed); M4C derived by comparing it with the table's wild-type CDR3 AGPMKTSYDKVI | 0
34 | […] (CDR3 as printed); K10V derived by comparing it with the table's wild-type CDR3 AGPMKTSYDKVI | 0
35 | […] (CDR3 as printed); Y8C derived by comparing it with the table's wild-type CDR3 AGPMKTSYDKVI | 0
36 | […] (CDR3 as printed); Y8A derived by comparing it with the table's wild-type CDR3 AGPMKTSYDKVI | 0
37 | […] (CDR3 as printed); V11K derived by comparing it with the table's wild-type CDR3 AGPMKTSYDKVI | 0
38 | […] (CDR3 as printed); P3W derived by comparing it with the table's wild-type CDR3 AGPMKTSYDKVI | 0
39 | […] (CDR3 as printed); T6G derived by comparing it with the table's wild-type CDR3 AGPMKTSYDKVI | 0
40 | […] (CDR3 as printed); G2Q derived by comparing it with the table's wild-type CDR3 AGPMKTSYDKVI | 0
41 | […] (CDR3 as printed); V11R derived by comparing it with the table's wild-type CDR3 AGPMKTSYDKVI | 0
42 | […] (CDR3 as printed); D9I derived by comparing it with the table's wild-type CDR3 AGPMKTSYDKVI | 0
